Measurements reported in patent US8846003 (PURDUE RESEARCH FOUNDATION, dated 2014).
*: point of attachment. Dansyl = CN(C)c1cccc2c(S(=O)(=O)*)cccc12

What was measured:
[1] = biological target: T1, collagen; assay: fluorescence plate binding assay; collagen coated on 96-well high-binding plate, Z-SILY 100 µM to 10 nM, ex/em 335/490 nm; from equilibrium binding
T1 construct: also called collagen surface; collagen-treated well
Protocol: (§1) Binding assays were done in a 96-well high-binding plate, black with a clear bottom (Costar). Collagen was compared to untreated wells and BSA coated wells. Collagen and BSA were immobilized at 37° C. for 1 hr by incubating 90 µL/well at concentrations of 2 mg/mL in 10 mM HCl and 1×PBS, respectively. Each well was washed 3× with 1×PBS after incubating. Z-SILY was dissolved in 1×PBS at concentrations from 100 µM to 10 nM in 10-fold dilutions. Wells were incubated for 30 min at 37° C. and rinsed 3× with PBS and then filled with 90 µL of 1×PBS. Fluorescence readings were taken on an M5 Spectramax Spectrophotometer (Molecular Devices) at excitation/emission wavelengths of 335 nm/490 nm respectively.

[2] = biological target: T1, collagen; assay: microplate fluorescence binding assay on collagen-coated wells, binding curve fitted to the data of FIGURE 4
Source text: Figure 4: FIG. 4. Binding of dansyl-modified peptide SILY to collagen measured in 96-well high-binding plate (black with a clear bottom (Costar)). PBS, buffer only; BSA, BSA-treated well; Collagen, collagen-treated well. Fluorescence readings were taken on an M5 Spectramax Spectrophotometer (Molecular Devices) at excitation/emission wavelengths of 335 nm/490 nm, respectively. Figure 5: FIG. 5. Collagen-dansyl-modified peptide SILY binding curve derived from fluorescence data described in FIG. 4. Figure 6: FIG. 6. A schematic description of the reagent, 3-(2-pyridyldithio)propionyl hydrazide (PDPH), and the chemistry of the two-step conjugation of a cysteine-containing peptide with an oxidized glycosylaminoglycoside showing the release of 2-pyridylthiol in the final step.
as §1, with “Wells were incubated for 30 min at 37° C. and rinsed 3× with PBS and then filled with 90 µL of 1×PBS.” left out

B1: Dansyl-GRRANAALKAGELYKSILYGC (peptide)
peptide: Dansyl-GRRANAALKAGELYKSILYGC-NH2
notes: Fluorescently labelled version of SILY; also called Z-SILY; ZSILY
Kd [1]: 860 nM
EC50 (read off the curve) [2]: ~900 nM
